According to article doi:10.1101/313882, “Cryptic adaptor protein interactions regulate DNA replication initiation” (bioRxiv, 2018):

Assays:
[1] = target: the molecule itself; experiment: SEC; size exclusion chromatogram of wild type DnaD^WHD or the ΔNT variant, absorbance at 280 nm (S2 Fig B)
[2] = target: the molecule itself; experiment: cross-linking; purified DnaD^WHD or variant at 16 uM with 0.03%, 0.06%, 0.12% glutaraldehyde; 20 mM HEPES pH 7.7, 150 mM NaCl, 1 mM DTT, 1 mM EDTA, 5% glycerol; 15 minutes at room temperature; SDS-polyacrylamide gel, coomassie blue

Protein | stoichiometry N [2] | other results
purified DnaD^WHD ΔNT variant (B. subtilis) (domain or fragment, UniProt P39787 19-128, looked up, DnaD, B. subtilis, winged helix domain (1-128) without the N-terminal extension (residues 1-18); The limits 19-128 are worked out from the printed extension (1-18) and the limits of DnaD^WHD (1-128); the purification is that told for DnaD^WHD and its variants; source: E. coli BL21 (DE3), purified (amylose, Ulp1 digestion, HiTrap Q, Sephacryl S-200); not shown: HIS6, N-terminal, cleaved; MBP, …) NLLLTHYKQLGLNETELILLLKIKMHLEKGSYFPTPNQLQEGMSISVEECTNRLRMFIQKGFLFIEECEDQNGIKFEKYSLQPLWGKLYEYIQLAQNQTQERKAEGEQKS |  | stoichiometry N [1]: 2
purified DnaD^WHD F51A (B. subtilis) (domain or fragment, UniProt P39787 1-128, looked up, DnaD, B. subtilis, winged helix domain, amino acids 1-128, F51A; source: E. coli BL21 (DE3), purified (amylose, Ulp1 digestion, HiTrap Q, Sephacryl S-200); not shown: HIS6, N-terminal, cleaved; MBP, N-terminal, cleaved; SUMO, N-terminal, cleaved) MKKQQFIDMQEQGTSTIPNLLLTHYKQLGLNETELILLLKIKMHLEKGSYAPTPNQLQEGMSISVEECTNRLRMFIQKGFLFIEECEDQNGIKFEKYSLQPLWGKLYEYIQLAQNQTQERKAEGEQKS | 4 | 
purified DnaD^WHD, wild type (B. subtilis) (domain or fragment, UniProt P39787 1-128, looked up, DnaD, B. subtilis, winged helix domain, amino acids 1-128; native N-terminus after Ulp1; also called WT; source: E. coli BL21 (DE3), purified (amylose, Ulp1 digestion, HiTrap Q, Sephacryl S-200); not shown: HIS6, N-terminal, cleaved; MBP, N-terminal, cleaved; SUMO, N-terminal, cleaved) MKKQQFIDMQEQGTSTIPNLLLTHYKQLGLNETELILLLKIKMHLEKGSYFPTPNQLQEGMSISVEECTNRLRMFIQKGFLFIEECEDQNGIKFEKYSLQPLWGKLYEYIQLAQNQTQERKAEGEQKS |  | binding result [2]: binds
purified DnaD^WHD I83A (B. subtilis) (domain or fragment, UniProt P39787 1-128, looked up, DnaD, B. subtilis, winged helix domain, amino acids 1-128, I83A; source: E. coli BL21 (DE3), purified (amylose, Ulp1 digestion, HiTrap Q, Sephacryl S-200); not shown: HIS6, N-terminal, cleaved; MBP, N-terminal, cleaved; SUMO, N-terminal, cleaved) MKKQQFIDMQEQGTSTIPNLLLTHYKQLGLNETELILLLKIKMHLEKGSYFPTPNQLQEGMSISVEECTNRLRMFIQKGFLFAEECEDQNGIKFEKYSLQPLWGKLYEYIQLAQNQTQERKAEGEQKS | 4 | 
